Columns and labels:
[1] = molecular target: CD44 (HCELL), native glycoprotein from human HSPCs (KG1a, CD34^pos fraction) (human) (UniProt P16070); assay: SPR; CD44 captured from KG1a lysate on Hermes-3-mAb, E-Ig injected, 150 mM NaCl; apparent rate constant; 2nd experiment
[2] = molecular target: T1, CD34, native glycoprotein from human HSPCs (KG1a, CD34^pos-BM, CD34^pos-UCB, CD34^pos-AML) (human, UniProt P28906 32-385, native glycosylation (about 120-130 kDa form); sialylated O-glycans and tyrosine sulfation are shown to matter for selectin binding); assay: SPR; CD34 captured from KG1a lysate on 563-mAb, E-Ig injected, 150 mM NaCl; apparent rate constant; 1st experiment
T1 construct: mature; also called E-selL CD34
T1 sequence (looked up): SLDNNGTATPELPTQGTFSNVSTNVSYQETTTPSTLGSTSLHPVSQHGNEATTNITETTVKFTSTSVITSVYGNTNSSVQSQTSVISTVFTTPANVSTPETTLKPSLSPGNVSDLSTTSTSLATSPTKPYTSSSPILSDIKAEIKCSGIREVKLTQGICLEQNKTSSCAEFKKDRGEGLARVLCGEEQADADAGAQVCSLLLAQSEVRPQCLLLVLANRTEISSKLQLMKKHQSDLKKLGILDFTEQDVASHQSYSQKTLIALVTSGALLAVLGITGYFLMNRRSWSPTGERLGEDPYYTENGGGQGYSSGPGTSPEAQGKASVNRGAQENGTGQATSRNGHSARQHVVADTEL

[3] = molecular target: T1, CD34, native glycoprotein from human …; assay: SPR; CD34 captured from KG1a lysate on 563-mAb, E-Ig injected (3.9-2000 nM), 150 mM NaCl; steady-state model; 3rd experiment
[4] = molecular target: T2, PSGL-1, native glycoprotein from human HSPCs (KG1a, CD34^pos-BM) (human, UniProt Q14242 42-412, native glycosylation and tyrosine sulfation); assay: SPR; PSGL-1 captured from KG1a lysate on KPL-1-mAb, E-Ig injected, 150 mM NaCl; apparent rate constant; mean ± SEM
T2 construct: mature; also called P-selectin glycoprotein ligand-1
T2 sequence (looked up): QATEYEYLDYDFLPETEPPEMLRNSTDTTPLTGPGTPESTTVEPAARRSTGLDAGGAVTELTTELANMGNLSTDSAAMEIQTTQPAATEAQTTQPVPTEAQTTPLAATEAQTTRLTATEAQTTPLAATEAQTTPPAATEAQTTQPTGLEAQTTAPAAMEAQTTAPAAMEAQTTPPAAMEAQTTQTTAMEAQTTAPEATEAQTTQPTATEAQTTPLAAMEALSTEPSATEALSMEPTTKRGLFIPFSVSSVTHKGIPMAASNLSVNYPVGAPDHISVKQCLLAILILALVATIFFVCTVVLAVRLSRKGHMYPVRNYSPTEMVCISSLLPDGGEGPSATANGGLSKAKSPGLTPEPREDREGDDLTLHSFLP

[5] = molecular target: T1, CD34, native glycoprotein from human …; assay: SPR; CD34 captured from CD34^pos-BM lysate on 563 mAb; apparent rate constant, estimate
[6] = molecular target: T3, CD43, native glycoprotein from KG1a cells (human, UniProt P16150 20-400, native glycosylation); assay: SPR; CD43 captured from KG1a lysate on polyclonal CD43 Ab, E-Ig injected (3.9-2000 nM), 150 mM NaCl; steady-state model; mean ± SEM
T3 construct: mature
T3 sequence (looked up): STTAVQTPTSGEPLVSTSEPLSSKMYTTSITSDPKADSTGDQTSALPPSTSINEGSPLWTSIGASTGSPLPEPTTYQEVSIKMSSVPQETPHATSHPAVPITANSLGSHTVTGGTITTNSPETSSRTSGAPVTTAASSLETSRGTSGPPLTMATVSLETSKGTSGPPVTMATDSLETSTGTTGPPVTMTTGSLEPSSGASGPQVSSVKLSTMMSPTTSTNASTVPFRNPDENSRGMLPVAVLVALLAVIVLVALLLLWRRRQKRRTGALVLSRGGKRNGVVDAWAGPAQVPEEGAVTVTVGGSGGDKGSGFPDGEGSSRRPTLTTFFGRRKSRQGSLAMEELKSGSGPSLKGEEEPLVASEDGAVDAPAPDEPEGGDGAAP

[7] = molecular target: T1, CD34, native glycoprotein from human …; assay: SPR; CD34 captured from CD34^pos-BM lysate on 563 mAb, E-Ig injected, 50 mM NaCl; steady-state model
[8] = molecular target: T1, CD34, native glycoprotein from human …; assay: SPR; CD34 captured from CD34^pos-BM lysate on 563 mAb; apparent rate constant after the last E-Ig injection
[9] = molecular target: T2, PSGL-1, native glycoprotein from human …; assay: SPR; PSGL-1 captured from KG1a lysate on KPL-1-mAb, E-Ig injected (3.9-2000 nM), 150 mM NaCl; steady-state model; mean ± SEM
[10] = molecular target: T1, CD34, native glycoprotein from human …; assay: SPR; CD34 captured from KG1a lysate on 563-mAb, E-Ig injected (3.9-2000 nM), 150 mM NaCl; steady-state model; 1st experiment

Sequence of CD44 (HCELL), native glycoprotein from human HSPCs (KG1a, CD34^pos fraction) (human) (P16070 21-742): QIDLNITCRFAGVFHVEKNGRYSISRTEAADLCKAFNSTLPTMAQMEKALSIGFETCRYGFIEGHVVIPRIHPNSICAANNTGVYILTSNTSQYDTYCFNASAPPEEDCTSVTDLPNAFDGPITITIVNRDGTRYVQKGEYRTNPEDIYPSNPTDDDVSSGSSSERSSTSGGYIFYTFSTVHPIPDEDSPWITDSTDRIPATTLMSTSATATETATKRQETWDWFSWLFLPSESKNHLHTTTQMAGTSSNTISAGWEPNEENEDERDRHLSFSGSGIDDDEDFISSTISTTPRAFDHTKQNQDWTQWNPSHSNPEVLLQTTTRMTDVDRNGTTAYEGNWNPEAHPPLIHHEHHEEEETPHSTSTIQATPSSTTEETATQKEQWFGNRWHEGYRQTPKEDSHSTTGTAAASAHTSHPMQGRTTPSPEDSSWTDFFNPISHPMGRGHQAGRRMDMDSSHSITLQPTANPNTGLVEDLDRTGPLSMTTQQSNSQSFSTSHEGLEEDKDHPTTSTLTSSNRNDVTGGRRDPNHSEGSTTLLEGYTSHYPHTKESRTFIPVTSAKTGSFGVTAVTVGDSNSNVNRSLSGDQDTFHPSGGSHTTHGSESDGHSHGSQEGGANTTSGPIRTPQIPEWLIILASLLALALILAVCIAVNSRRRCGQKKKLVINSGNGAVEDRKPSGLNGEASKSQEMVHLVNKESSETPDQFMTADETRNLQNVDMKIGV

B1: recombinant E-selectin human immunoglobulin chimeric protein (Fc fusion)
chain: WSYNTSTEAMTYDEASAYCQQRYTHLVAIQNKEEIEYLNSILSYSPSYYWIGIRKVNNVWVWVGTQKPLTEEAKNWAPGEPNNRQKDEDCVEIYIKREKDVGMWNDERCSKKKLALCYTAACTNTSCSGHGECVETINNYTCKCDPGFSGLKCEQIVNCTALESPEHGSLVCSHPLGNFSYNSSCSISCDRGYLPSSMETMQCMSSGEWSAPIPACNVVECDAVTNPANGFVECFQNPGSFPWNTTCTFDCEEGFELMGAQSLQCTSSGNWDNEKPTCKAVTCRAVRQPQNGSVRCSHSPAGEFTFKSSCNFTCEEGFMLQGPAQVECTTQGQWTQQIPVCEAFQCTALSNPERGYMNCLPSASGSFRYGSSCEFSCEQGFVLKGSKRLQCGPTGEWDNEKPTCEAVRCDAVHQPPKGLVRCAHSPIGEFTYKSSCAFSCEEGFELHGSTQLECTSQGQWTEEVPSCQVVKCSSLAVPGKINMSCSGEPVFGTVCKFACPEGWTLNGSAARTCGATGHWSGLLPTCEAPTESNIP
koff [1]: 0.0002 s⁻¹
kon [1]: 794 M⁻¹ s⁻¹
koff [2]: 0.00029 s⁻¹
kon [2]: 2030 M⁻¹ s⁻¹
Kd [3]: 297 nM
koff [4]: 0.00019 s⁻¹
kon [4]: 793 M⁻¹ s⁻¹
kon [5]: ~728 M⁻¹ s⁻¹
Kd [6]: 442 nM
Kd [7]: 261 nM
koff [8]: 0.00019 s⁻¹
Kd [9]: 259 nM
Kd [10]: 145 nM

From patent US20200199533A1 (KING ABDULLAH UNIVERSITY OF SCIENCE AND TECHNOLOGY, published 2020)
